Measured values: article PMC5345129
One block for each molecule: values may come before it.

How the values were obtained:
[1] = molecular target: myc-tagged, constitutively active Gα12 (GTPase-deficient Q229L mutant) (UniProt P27600); experiment: GST co-precipitation (pull-down), immunoblot bands quantified with ImageJ; settings: parent: 100; read off a plot
[2] = molecular target: GST-fusion of the RH domain of LARG (leukemia-associated RhoGEF); experiment: GST co-precipitation (pull-down) from HEK293 cell extracts, immunoblot bands quantified with ImageJ; settings: parent: est. 100; read off a plot
[3] = molecular target: GST-fusion of the 257-amino acid C-terminus of AKAP-Lbc; experiment: as above; settings: parent: est. 100; read off a plot
[4] = molecular target: GST-fusion of the 257-amino acid region of p114RhoGEF corresponding to the Gα12-binding region of AKAP-Lbc; experiment: as above; settings: parent: est. 100; read off a plot
[5] = molecular target: GST-fusion of the 257-amino acid C-terminus of AKAP-Lbc (human); experiment: pull-down; GST fusion proteins bound to Glutathione Sepharose 4B; Gα variants from high-speed supernatants of transfected HEK293 cells, detergent diluted to 0.05% polyoxyethylene-10-lauryl ether; 50 mM HEPES pH 7.5, 1 mM EDTA, 3 mM dithiothreitol, 10 mM MgSO4; 2 h at 4°C; three washes; immunoblot (anti-Gα12, anti-myc or anti-EGFP); 5% of the extract kept as load
[6] = molecular target: T1, GST-fusion of the 257-amino acid region of p114RhoGEF corresponding to the Gα12-binding region of AKAP-Lbc (human); experiment: as above
T1 sequence (Q6ZSZ5 whole entry, looked up): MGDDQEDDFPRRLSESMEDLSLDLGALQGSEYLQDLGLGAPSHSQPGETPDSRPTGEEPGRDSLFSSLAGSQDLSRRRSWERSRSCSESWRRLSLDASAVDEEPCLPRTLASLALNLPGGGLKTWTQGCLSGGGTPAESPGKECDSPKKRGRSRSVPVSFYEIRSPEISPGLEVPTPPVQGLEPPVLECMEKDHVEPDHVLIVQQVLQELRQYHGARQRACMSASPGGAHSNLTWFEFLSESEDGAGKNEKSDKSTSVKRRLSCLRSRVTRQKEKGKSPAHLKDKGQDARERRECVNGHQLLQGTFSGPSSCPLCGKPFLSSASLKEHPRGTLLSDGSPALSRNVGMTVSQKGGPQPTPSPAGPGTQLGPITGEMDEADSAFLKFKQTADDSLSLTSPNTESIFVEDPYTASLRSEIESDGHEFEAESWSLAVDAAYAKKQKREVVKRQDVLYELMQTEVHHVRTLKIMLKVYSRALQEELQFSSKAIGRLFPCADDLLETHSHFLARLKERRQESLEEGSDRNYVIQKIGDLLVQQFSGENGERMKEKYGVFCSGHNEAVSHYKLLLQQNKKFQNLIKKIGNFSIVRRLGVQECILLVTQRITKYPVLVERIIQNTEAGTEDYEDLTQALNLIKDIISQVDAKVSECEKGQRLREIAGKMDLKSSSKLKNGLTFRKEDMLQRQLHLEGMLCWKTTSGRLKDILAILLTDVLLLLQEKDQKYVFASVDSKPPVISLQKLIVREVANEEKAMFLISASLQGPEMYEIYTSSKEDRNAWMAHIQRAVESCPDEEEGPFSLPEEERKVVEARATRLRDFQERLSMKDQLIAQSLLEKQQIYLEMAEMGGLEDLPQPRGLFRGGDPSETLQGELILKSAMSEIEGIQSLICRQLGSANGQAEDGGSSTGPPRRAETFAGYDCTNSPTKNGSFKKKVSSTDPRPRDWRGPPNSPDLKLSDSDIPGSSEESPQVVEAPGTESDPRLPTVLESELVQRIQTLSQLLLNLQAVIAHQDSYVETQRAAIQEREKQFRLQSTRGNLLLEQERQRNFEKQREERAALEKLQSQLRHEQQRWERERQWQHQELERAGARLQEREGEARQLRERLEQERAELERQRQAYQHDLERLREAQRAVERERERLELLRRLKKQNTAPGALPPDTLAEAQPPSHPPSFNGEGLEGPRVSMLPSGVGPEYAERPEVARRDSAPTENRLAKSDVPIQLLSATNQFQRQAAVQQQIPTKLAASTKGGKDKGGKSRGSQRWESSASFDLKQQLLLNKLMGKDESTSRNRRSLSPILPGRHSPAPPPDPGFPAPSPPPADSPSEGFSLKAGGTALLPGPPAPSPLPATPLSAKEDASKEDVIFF

Sequence of GST-fusion of the 257-amino acid C-terminus of AKAP-Lbc (human) (Q12802 whole entry, the tested form may be a part): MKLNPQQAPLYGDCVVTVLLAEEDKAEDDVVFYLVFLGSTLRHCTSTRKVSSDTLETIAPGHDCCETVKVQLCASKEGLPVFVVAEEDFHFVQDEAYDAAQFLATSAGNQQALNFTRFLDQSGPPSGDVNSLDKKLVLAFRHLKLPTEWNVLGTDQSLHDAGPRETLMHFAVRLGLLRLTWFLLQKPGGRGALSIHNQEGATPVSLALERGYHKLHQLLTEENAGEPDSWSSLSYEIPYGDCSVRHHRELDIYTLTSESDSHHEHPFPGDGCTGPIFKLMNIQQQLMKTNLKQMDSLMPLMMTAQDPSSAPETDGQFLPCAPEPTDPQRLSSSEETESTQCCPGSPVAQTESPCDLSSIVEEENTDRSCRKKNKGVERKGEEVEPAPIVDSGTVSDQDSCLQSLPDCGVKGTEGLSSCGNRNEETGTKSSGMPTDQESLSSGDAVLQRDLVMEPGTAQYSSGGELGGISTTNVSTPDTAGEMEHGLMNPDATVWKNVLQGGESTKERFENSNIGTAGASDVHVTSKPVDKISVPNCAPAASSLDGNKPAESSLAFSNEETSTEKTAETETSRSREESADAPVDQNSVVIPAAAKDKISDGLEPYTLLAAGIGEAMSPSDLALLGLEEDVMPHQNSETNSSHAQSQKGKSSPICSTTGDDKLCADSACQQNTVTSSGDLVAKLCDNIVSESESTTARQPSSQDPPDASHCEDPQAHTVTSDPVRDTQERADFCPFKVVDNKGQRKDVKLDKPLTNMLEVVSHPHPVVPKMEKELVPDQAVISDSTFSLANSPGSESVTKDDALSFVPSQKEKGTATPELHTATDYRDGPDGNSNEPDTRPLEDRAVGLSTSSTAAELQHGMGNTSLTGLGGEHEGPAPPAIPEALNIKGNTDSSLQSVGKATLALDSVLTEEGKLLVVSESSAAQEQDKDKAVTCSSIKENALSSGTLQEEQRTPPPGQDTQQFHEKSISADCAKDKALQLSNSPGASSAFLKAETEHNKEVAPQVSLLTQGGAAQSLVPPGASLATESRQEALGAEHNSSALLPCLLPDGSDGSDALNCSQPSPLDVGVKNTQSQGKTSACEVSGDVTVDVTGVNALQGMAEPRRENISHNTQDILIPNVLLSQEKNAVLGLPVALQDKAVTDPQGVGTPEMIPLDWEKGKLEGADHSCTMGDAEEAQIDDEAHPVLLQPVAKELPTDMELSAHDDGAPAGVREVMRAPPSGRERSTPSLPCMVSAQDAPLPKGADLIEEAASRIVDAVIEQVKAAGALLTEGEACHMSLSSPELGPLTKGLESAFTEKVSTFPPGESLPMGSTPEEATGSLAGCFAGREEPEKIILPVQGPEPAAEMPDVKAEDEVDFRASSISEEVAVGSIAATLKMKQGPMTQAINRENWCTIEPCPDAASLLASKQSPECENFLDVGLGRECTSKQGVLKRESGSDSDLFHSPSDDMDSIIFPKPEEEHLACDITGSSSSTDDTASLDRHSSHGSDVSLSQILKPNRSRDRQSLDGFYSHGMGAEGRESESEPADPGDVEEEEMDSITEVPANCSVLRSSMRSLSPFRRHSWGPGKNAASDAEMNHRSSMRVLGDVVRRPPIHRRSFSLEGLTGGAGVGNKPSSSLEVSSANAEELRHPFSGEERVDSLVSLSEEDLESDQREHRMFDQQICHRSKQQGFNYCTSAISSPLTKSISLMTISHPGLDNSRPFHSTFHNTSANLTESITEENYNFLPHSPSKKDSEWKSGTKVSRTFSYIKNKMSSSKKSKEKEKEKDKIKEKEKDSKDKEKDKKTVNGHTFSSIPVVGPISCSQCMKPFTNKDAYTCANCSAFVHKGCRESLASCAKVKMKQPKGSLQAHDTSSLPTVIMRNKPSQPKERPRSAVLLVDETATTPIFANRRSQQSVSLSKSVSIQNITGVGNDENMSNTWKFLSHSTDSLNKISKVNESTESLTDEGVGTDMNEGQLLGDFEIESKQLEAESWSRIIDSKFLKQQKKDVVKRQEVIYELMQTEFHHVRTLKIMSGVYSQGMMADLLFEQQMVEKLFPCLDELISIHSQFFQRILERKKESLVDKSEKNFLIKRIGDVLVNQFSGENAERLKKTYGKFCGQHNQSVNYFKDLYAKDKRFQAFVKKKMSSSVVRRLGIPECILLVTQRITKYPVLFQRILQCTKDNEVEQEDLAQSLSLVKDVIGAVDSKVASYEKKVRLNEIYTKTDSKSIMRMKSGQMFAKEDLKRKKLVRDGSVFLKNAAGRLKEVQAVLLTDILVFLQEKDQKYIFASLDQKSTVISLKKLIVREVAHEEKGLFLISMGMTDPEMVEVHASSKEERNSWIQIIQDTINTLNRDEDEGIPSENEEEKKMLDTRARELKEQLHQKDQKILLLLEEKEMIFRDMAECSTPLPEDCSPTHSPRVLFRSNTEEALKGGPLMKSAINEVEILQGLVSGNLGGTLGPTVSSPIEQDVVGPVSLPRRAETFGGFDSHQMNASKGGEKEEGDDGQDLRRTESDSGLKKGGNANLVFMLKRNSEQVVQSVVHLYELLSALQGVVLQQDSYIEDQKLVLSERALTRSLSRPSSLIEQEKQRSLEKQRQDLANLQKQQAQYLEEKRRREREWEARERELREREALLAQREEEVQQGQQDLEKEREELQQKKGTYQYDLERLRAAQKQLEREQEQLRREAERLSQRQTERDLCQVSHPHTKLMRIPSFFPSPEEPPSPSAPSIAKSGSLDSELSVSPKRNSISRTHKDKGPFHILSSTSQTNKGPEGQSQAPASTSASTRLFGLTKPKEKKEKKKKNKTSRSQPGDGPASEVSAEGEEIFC

Molecule: GST-fusion of the 257-amino acid C-terminus of AKAP-Lbc E2576R
percent of parent [1]: 29 % of control

Molecule: GST-fusion of the 257-amino acid C-terminus of AKAP-Lbc E2670R
percent of parent [1]: 33 % of control

Molecule: GST-fusion of the 257-amino acid region of p114RhoGEF corresponding to the Gα12-binding region of AKAP-Lbc E695R
percent of parent [1]: 42 % of control

Molecule: myc-tagged, constitutively active Gα12 (GTPase-deficient Q229L mutant) (from UniProt P27600) C11A
percent of parent (% of 12QL control) [2]: 92

B1: myc-tagged, constitutively active Gα12 (Q229L) with C11A substitution (natural protein)
chain: MSGVVRTLSRALLPAEAGARERRAGAARDAEREARRRSRDIDALLARERRAVRRLVKILLLGAGESGKSTFLKQMRIIHGREFDQKALLEFRDTIFDNILKGSRVLVDARDKLGIPWQHSENEKHGMFLMAFENKAGLPVEPATFQLYVPALSALWRDSGIREAFSRRSEFQLGESVKYFLDNLDRIGQLNYFPSKQDILLARKATKGIVEHDFVIKKIPFKMVDVGGLRSQRQKWFQCFDGITSILFMVSSSEYDQVLMEDRRTNRLVESMNIFETIVNNKLFFNVSIILFLNKMDLLVEKVKSVSIKKHFPDFKGDPHRLEDVQRYLVQCFDRKRRNRSKPLFHHFTTAIDTENIRFVFHAVKDTILQENLKDIMLQ
% loss of binding (co-precipitated Gα12 normalized for starting material, against non-mutated Gα12 Q229L) [5]: 60%
% loss of binding (co-precipitated Gα12 normalized for starting material, against non-mutated Gα12 Q229L) [6]: 72%

Second part, the molecule after the results:

percent of parent [1]: 37 % of control
Molecule: GST-fusion of the 257-amino acid region of p114RhoGEF corresponding to the Gα12-binding region of AKAP-Lbc E789R

percent of parent (% of 12QL control) [3]: 105
percent of parent (% of 12QL control) [4]: 95
percent of parent (% of 12QL control) [2]: 16
Molecule: myc-tagged, constitutively active Gα12 (GTPase-deficient Q229L mutant) (from UniProt P27600) Δ244-249 (sextet Asn-Ala-Ala-Ile-Arg-Ser in place of native residues 244-249)
